Experimental data from the supplement of paper PMC12042874.
± gives the uncertainty stated by the source.

Assay: amyloid nucleation score (Sup35N fusion, yeast selection) (log enrichment); library NNK2; higher = more nucleation; inactive = no reads after selection
Summary of the method: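 Yeast lacking psi expressed peptides of 20 random codons fused to Sup35N, received 100 μM copper sulfate for 24 hours, and were then grown for 7 days at 30°C on medium lacking adenine and uracil. Illumina sequencing of input and output plasmid inserts provided the reads. Nucleation scores are DiMSum log enrichments of output over input, centred on the mode of non-aggregating sequences. Any sequence with under 100 input reads was excluded.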
Work on NAHKTNLVQTLVNRLIELMD yielded an amyloid nucleation score of 0.223 ± 0.29. Substance QKNTSQCFVLSW has an amyloid nucleation score of 0.129 ± 0.49. ISLFDYGQGMFHRCFMAVKG showed an amyloid nucleation score of -0.131 ± 0.6. In the case of DTVALCNWLMRLESFSFAGQ, the amyloid nucleation score is reported as 1.83 ± 0.19. Substance FGLSITECGWVVLCMVWVPR has an amyloid nucleation score of 0.246 ± 0.17. Work on VLREDSIELWPDGTVGGRTG yielded an amyloid nucleation score of 1.35 ± 0.37. In the case of VRFTLYGCWGLMFFTMVGR, the amyloid nucleation score is reported as “inactive”. With SPKTYRRIIGIGQVAVRVCK the amyloid nucleation score was 0.673 ± 0.25. For QCLQCGP, the amyloid nucleation score was -0.553 ± 0.49. For QLICTMNFVAEYNWSALRRN, the amyloid nucleation score was 4.55 ± 0.12. With SNCFHLVW the amyloid nucleation score was -0.031 ± 1. With SRANMQSRCRLNNQSVYGKL the amyloid nucleation score was -0.175 ± 0.45. For LYFLV, the amyloid nucleation score was 6.55 ± 0.085. For MCDLDDRKTTLSPWLRSSLG, the amyloid nucleation score was 1.14 ± 0.35. For SSASFSVHQYCYLLNPSF, the amyloid nucleation score was 1.45 ± 0.28. With GVYWILFIAWLRKVRWYSDV the amyloid nucleation score was -0.144 ± 0.32. In the case of TGAFPDCLALMYKGAEEVER, the amyloid nucleation score is reported as 0.011 ± 0.28. GRYVNCGRSLRICSINLTKI gave an amyloid nucleation score of -1.31 ± 0.55. For MGFIRINWLNSVLRSPPTHR, the amyloid nucleation score was 5.527 ± 0.044. Substance SDPSNLSMMCTQQRLAGSD has an amyloid nucleation score of -0.189 ± 0.49. SRDCVRDLSVMCSLWKWFPV gave an amyloid nucleation score of -0.394 ± 1.1. For QYLSALSSAISGGDVYMMSK, the amyloid nucleation score was 5.15 ± 0.065. With PLGSNACPTHFSCD the amyloid nucleation score was “inactive”. In the case of ILLYNCCCEGWACKSWLGSH, the amyloid nucleation score is reported as “inactive”. Substance PSRYAVLLCFGGVDTNVGIT has an amyloid nucleation score of 4.967 ± 0.049. VKNFYNSSINGLGLYMNMRF showed an amyloid nucleation score of 2.43 ± 0.068. In the case of AILRRVKIQLPRIPPEYCGW, the amyloid nucleation score is reported as 0.884 ± 0.49. In the case of NIWRRSSSV, the amyloid nucleation score is reported as “inactive”. With NSVRSV the amyloid nucleation score was “inactive”. In the case of DNMGMRSGSSDLHREVWSHC, the amyloid nucleation score is reported as 0.172 ± 0.35. For YGSFIWWLPCNGMGLKCSRS, the amyloid nucleation score was 1.67 ± 0.12. GGGHMFFAGQ gave an amyloid nucleation score of -1.28 ± 1.1. In the case of IVFFVSWLIKCKPWFLVVNM, the amyloid nucleation score is reported as “inactive”. Work on ISPNALEAQMPTQCNYEDGE yielded an amyloid nucleation score of 0.451 ± 0.48. Substance PCSGSLPRTKTD has an amyloid nucleation score of -0.167 ± 0.32. For SCNAGVGSIS, the amyloid nucleation score was -0.011 ± 0.46. Work on CKIRNDSSSSRLVIHILDTA yielded an amyloid nucleation score of 6.357 ± 0.059. Work on VFAYYIDRARSSRVPCTVAN yielded an amyloid nucleation score of 4.28 ± 0.12. Work on SFGRAENNSSARDMYV yielded an amyloid nucleation score of -0.535 ± 0.28. For FSLLTTFSLTNGGPAFLMIR, the amyloid nucleation score was “inactive”. Work on QIFVR yielded an amyloid nucleation score of 0.689 ± 0.55. Work on ILIREPLHDIGNVNLLVRSS yielded an amyloid nucleation score of -0.359 ± 0.48. RVGTLKTISFHSNLNSNKIR showed an amyloid nucleation score of -0.614 ± 0.33. Substance PRPVLAAALAKPLGTS has an amyloid nucleation score of 0.87 ± 0.23. With WLSTVVL the amyloid nucleation score was “inactive”. Work on LYSVGVR yielded an amyloid nucleation score of -0.387 ± 1.1. With NLIFI the amyloid nucleation score was “inactive”. With HSAIDMWS the amyloid nucleation score was -0.903 ± 0.44. With GCFSCHIWFTVRFYWTLYVP the amyloid nucleation score was “inactive”. CAVEVM gave an amyloid nucleation score of -0.724 ± 0.64. In the case of SDLYNSSFEVLYSSYCPDVW, the amyloid nucleation score is reported as “inactive”. For RNILPLARDSVVFNDCYDSG, the amyloid nucleation score was 0.545 ± 0.33. GFVERNMYAVDNDFYVQNQT showed an amyloid nucleation score of -1.2 ± 0.56. Work on SLEGKSWGCSTSNSLKGDKG yielded an amyloid nucleation score of -0.06 ± 1.1. With WFHVITFFLGASCIMWTKTR the amyloid nucleation score was “inactive”. SDLFVNICCRPNRMGV gave an amyloid nucleation score of -0.521 ± 0.48. Substance LYENRQFFCQGFGRWCMKLL has an amyloid nucleation score of 0.45 ± 0.74. In the case of CDFLLLKLFRNVLVWLVCSG, the amyloid nucleation score is reported as “inactive”. With FTKKFYWGYPWCYMVF the amyloid nucleation score was -0.229 ± 0.8. VPRSQIVVGIMFP gave an amyloid nucleation score of -1.06 ± 0.55. Work on YEIRWFRGLIK yielded an amyloid nucleation score of 0.495 ± 0.43. With QRAYVPQTLGVRISVSSRWQ the amyloid nucleation score was 3.41 ± 0.096. In the case of TGRISVSG, the amyloid nucleation score is reported as 0.14 ± 1. In the case of AYYLFYTRGEFR, the amyloid nucleation score is reported as 3.2 ± 0.09. With GMTEWVGLAQERIYAWAKSE the amyloid nucleation score was 0.517 ± 0.36. With RIFITIRIINPPKDFFIRCY the amyloid nucleation score was “inactive”. Work on WWTVKLLMSEVVFRWELEYI yielded an amyloid nucleation score of 5.735 ± 0.04. For DLSRTRGTEKASRSVWLRSM, the amyloid nucleation score was 3.97 ± 0.048. Substance TMIKSQMLYFSGLATRLRLG has an amyloid nucleation score of 0.098 ± 0.26. ARFFLHFG showed an amyloid nucleation score of 6.2 ± 0.074. Work on VACETRRRA yielded an amyloid nucleation score of 4.948 ± 0.04. Work on TAAVILLIVNRDANA yielded an amyloid nucleation score of 1.94 ± 0.14. FYRGLVDHRMNFITFNCGRQ showed an amyloid nucleation score of 5.6 ± 0.095. For YYVTNSGSWLDACHGLYKTG, the amyloid nucleation score was “inactive”. LSYLML showed an amyloid nucleation score of -1.03 ± 0.78. HDMEYKVMDRIARM showed an amyloid nucleation score of -0.501 ± 1.1. SSVRR showed an amyloid nucleation score of 0.723 ± 0.22. With NRVGSIPIGPVFTADVAIVL the amyloid nucleation score was 4.16 ± 0.091. LLRSLNLVG showed an amyloid nucleation score of 0.288 ± 0.65. Work on SKFFCVSSVRFRLCVWG yielded an amyloid nucleation score of -0.14 ± 1. REKVPYT showed an amyloid nucleation score of -0.428 ± 0.48. Work on WLLGMYVIRGRQSYNSKDVR yielded an amyloid nucleation score of 3.38 ± 0.054. In the case of VFDAKTFGGDTVFVAAEAHS, the amyloid nucleation score is reported as -0.669 ± 1. In the case of HPGMDF, the amyloid nucleation score is reported as “inactive”. VVILTFKAVYTAKFYACCAV showed an amyloid nucleation score of -0.104 ± 0.45.
